Laboratory results as given in patent publication US20260242478A1 (published 2026).
Where no end group is shown, it is not given here.

Columns and labels:
[1] = target: T1, Anti-CD28 Fab (SEQ ID NOs: 696, 697); assay: phage binding ELISA; Fab-coated wells pre-incubated with CD28 antigen as competitor, anti-M13 HRP detection;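 note: crude clonal phage supernatants from panned colonies added to wells after blocking buffer plus CD28 treatment, bound phage measured after a brief incubation and washing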
T1 construct: Biotinylated and captured on neutravidin coated plates in the phage ELISA
T1 sequence (VH, as listed by the source, chain 1 of 2): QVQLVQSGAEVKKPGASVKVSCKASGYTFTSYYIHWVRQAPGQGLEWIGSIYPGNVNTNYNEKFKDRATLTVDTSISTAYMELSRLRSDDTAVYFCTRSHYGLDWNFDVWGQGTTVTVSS
T1 sequence (VL, as listed by the source, chain 2 of 2): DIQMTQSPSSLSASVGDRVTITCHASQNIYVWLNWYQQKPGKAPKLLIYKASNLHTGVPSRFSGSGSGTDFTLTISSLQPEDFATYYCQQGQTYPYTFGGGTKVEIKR

[2] = target: T1, Anti-CD28 Fab (SEQ ID NOs: 696, 697); assay: phage binding ELISA; biotinylated anti-CD28 Fab on neutravidin plate, clonal phage supernatant, anti-M13 HRP detection
[3] = target: T2, anti-CD28 scFv (VH - linker 1 - VL) (biotinylated (site not stated)); assay: phage ELISA; biotinylated anti-CD28 scFv on neutravidin plate, clonal phage supernatant, anti-M13-HRP detection;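 note: before phage addition, wells were pretreated with soluble CD28 protein in blocking buffer, or with blocking buffer only as the comparison, then phage were added without washing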
[4] = target: T2, anti-CD28 scFv (VH - linker 1 - VL); assay: same phage ELISA, wells pre-incubated with soluble CD28 (competitor)
Procedure: Clonal phage were harvested as crude supernatants and screened via standard enzyme linked immunosorbent assays (ELISAs). […] Prior to the addition of clonal phage, wells were incubated with blocking buffer and CD28 soluble protein or blocking buffer alone. Without washing or aspirating, clonal phage supernatants were then added to the wells and incubated for a short time. Wells were then washed followed by detection of bound phage using a horse radish peroxidase conjugated anti-M13 antibody.

[5] = target: T3, Anti-CD28 Fab (SEQ ID NOs: 696, 697); assay: phage binding ELISA; biotinylated Fab on neutravidin plate, clonal phage supernatant, anti-M13 HRP;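 note: clones picked after panning, added to wells pre-incubated with CD28 antigen or with blocking buffer only, no wash before phage addition, bound phage read after washing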
T3 construct: Biotinylated and captured on neutravidin coated plates in the phage ELISA
T3 sequence (VH, as listed by the source, chain 1 of 2): as the sequence (VH, as listed by the source, chain 1 of 2) above
T3 sequence (VL, as listed by the source, chain 2 of 2): as the sequence (VL, as listed by the source, chain 2 of 2) above
Procedure: (§1) After panning, phage infected bacteria were plated out and colonies picked into 96 well blocks. Clonal phage was then amplified and separated from bacterial cells via centrifugation.
(§2) Clonal phage were harvested as crude supematants and screened via standard ELISAs. […] Prior to the addition of clonal phage, wells were incubated with blocking buffer and CD28 antigen or blocking buffer alone. Without washing or aspirating, clonal phage supematants were then added to the wells and incubated for a short time. Wells were then washed followed by detection of bound phage using a horse radish conjugated anti-M13 antibody. Clonal phage of interest were then sent for sequence analysis.

[6] = target: T3, Anti-CD28 Fab (SEQ ID NOs: 696, 697); assay: phage binding ELISA; Fab wells pre-incubated with CD28 antigen as competitor, anti-M13 HRP
Procedure: as §1, §2

[7] = target: T4, PSMA Fab (SEQ ID NOs: 19, 20); assay: competition ELISA, peptide titrated against 0.3 nM PSMA Fab on captured biotinylated PSMA
T4 construct: also called 006 PSMA Fab; anti-PSMA Fab
Procedure: The concentration of peptide required to reduce the maximum signal by 50% (IC₅₀) was calculated in Graphpad Prism software.

T2 sequence (scFv, as listed by the source): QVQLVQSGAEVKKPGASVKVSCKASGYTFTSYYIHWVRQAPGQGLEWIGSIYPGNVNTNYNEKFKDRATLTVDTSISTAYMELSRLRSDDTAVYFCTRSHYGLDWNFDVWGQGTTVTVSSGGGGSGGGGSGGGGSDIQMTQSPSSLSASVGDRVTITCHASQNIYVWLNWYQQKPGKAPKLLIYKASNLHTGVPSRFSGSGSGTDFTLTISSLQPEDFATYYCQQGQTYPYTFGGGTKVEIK

Row | Binder | Anti-CD28 Fab signal in the presence of CD28 (phage binding ELISA) [1] | Anti-CD28 Fab signal (phage binding ELISA) [2] | CD28 scFv signal [3] | CD28 scFv signal in presence of CD28 [4] | other results
1 | YCEGHLPEYREKCL (peptide, not shown: large carriers, Clonal phage of the Peptide-87 optimisation library, tested as crude supernatant) [Phage-487] | 0.07 | 1.96 |  |  | 
2 | YCEGHLPEYRNKCL (peptide, not shown: large carriers, Clonal phage of the Peptide-87 optimisation library, tested as crude supernatant) [Phage-493] | 0.17 | 2.38 |  |  | 
3 | MDWCPRDLWHLCFS (peptide, not shown: large carriers, cysteine pairing not given here; also: displayed on phage as fusion to pIII, linker and pIII sequence not given here, Clonal phage supernatant) [Phage-27] |  |  | 2.59 | 0.29 | 
4 | YCEGHLPEYLGKCL (peptide, not shown: large carriers, Clonal phage of the Peptide-87 optimisation library, tested as crude supernatant) [Phage-486] | 0.08 | 1.23 |  |  | 
5 | YCEGHLPEYLAKCL (peptide, not shown: large carriers, Clonal phage of the Peptide-87 optimisation library, tested as crude supernatant) [Phage-488] | 0.1 | 2.34 |  |  | 
6 | MDWCPIYLWSECFN (peptide, not shown: large carriers, Clonal phage supernatant) [Phage-21] |  |  | 2.63 | 0.513 | 
7 | MDWCPRFMWDECFN (peptide, not shown: large carriers, Clonal phage supernatant) [Phage-33] |  |  | 2.68 | 0.256 | 
8 | YCEGHLPEYIQKCL (peptide, not shown: large carriers, Clonal phage of the Peptide-87 optimisation library, tested as crude supernatant) [Phage-495] | 0.08 | 1.9 |  |  | 
9 | YCEGHLPEYIWKCL (peptide, not shown: large carriers, Clonal phage of the Peptide-87 optimisation library, tested as crude supernatant) [Phage-496] | 0.09 | 2.32 |  |  | 
10 | YCEGHSQEYLWKCL (peptide, not shown: large carriers, Clonal phage of the Peptide-87 optimisation library, tested as crude supernatant) [Phage-489] | 0.07 | 2.36 |  |  | 
11 | YCEGHLPEYLEKCV (peptide, not shown: large carriers, Clonal phage of the Peptide-87 optimisation library, tested as crude supernatant) [Phage-494] | 0.06 | 2.11 |  |  | 
12 | MDWCPRDLWHECFA (peptide, not shown: large carriers, cysteine pairing not given here; also: phage-displayed pIII fusion, pIII and linker not given here, Clonal phage supernatant) [Phage-26] |  |  | 2.71 | 0.277 | 
13 | MDWCPRERWVDCFF (peptide, not shown: large carriers, cysteine pairing not given here; also: displayed on phage as fusion to pIII, linker not given here, Clonal phage supernatant) [Phage-9] |  |  | 2.04 | 0.489 | 
14 | MDWCPRHMWNYCFA (peptide, not shown: large carriers, cysteine pairing not given here; also: displayed on phage as fusion to pIII, linker and pIII sequence not given here, Clonal phage supernatant) [Phage-34] |  |  | 2.71 | 0.242 | 
15 | MDWCPIDLWNECFF (peptide, not shown: large carriers, cysteine pairing not given here; also: phage-displayed pIII fusion, pIII and linker not given here, Clonal phage supernatant) [Phage-19] |  |  | 2.52 | 0.187 | 
16 | MDWCPRDLWSECFF (peptide, not shown: large carriers, Clonal phage supernatant) [Phage-28] |  |  | 2.57 | 0.218 | 
17 | MDWCPRDLWDLCFA (peptide, not shown: large carriers, cysteine pairing not given here; also: phage-displayed pIII fusion, pIII and linker not given here, Clonal phage supernatant) [Phage-25] |  |  | 2.7 | 0.219 | 
18 | YCEGHAPEYIGKCL (peptide, not shown: large carriers, Clonal phage of the Peptide-87 optimisation library, tested as crude supernatant) [Phage-497] | 0.07 | 2.1 |  |  | 
19 | HCSGHHWLQVWKCF (peptide, not shown: large carriers, Clonal phage of the Peptide-87 optimisation library, tested as crude supernatant) [Phage-491] | 0.07 | 2.31 |  |  | 
20 | YCEGHSPEYMAKCL (cysteine pairing not given here; also: displayed on phage as fusion to pIII, linker, pIII sequence and order not given here, Clonal phage supernatant; not shown: pIII filament protein of the bacteriophage to which the peptide is fused) [Phage-526] |  |  |  |  | Anti-CD28 Fab (SEQ ID NOs: 696, 697) signal [5]: 2.35; Anti-CD28 Fab signal in the presence of CD28 [6]: 0.07
21 | MDWCPRDMWDECFA (peptide, not shown: large carriers, cysteine pairing not given here; also: peptide displayed as fusion to phage pIII, Clonal phage supernatant) [Phage-30] |  |  | 2.59 | 0.25 | 
22 | MDWCPRDMWSECFA (peptide, not shown: large carriers, Clonal phage supernatant) [Phage-31] |  |  | 2.7 | 0.293 | 
23 | MDWCPLYLWNECFN (peptide, not shown: large carriers, Clonal phage supernatant) [Phage-24] |  |  | 2.61 | 0.247 | 
24 | MDWCPIHLWHVCFN (peptide, not shown: large carriers, cysteine pairing not given here; also: displayed as fusion to phage pIII, Clonal phage supernatant) [Phage-20] |  |  | 2.53 | 0.167 | 
25 | YCDGHSPIYMWKCL (peptide, not shown: large carriers, Clonal phage of the Peptide-87 optimisation library, tested as crude supernatant) [Phage-498] | 0.09 | 2.47 |  |  | 
26 | YCEGHAPEYMAKCL (peptide, not shown: large carriers, Clonal phage of the Peptide-87 optimisation library, tested as crude supernatant) [Phage-499] | 0.08 | 2.47 |  |  | 
27 | QCVWDRGTWWMACD (cysteine pairing not given here; also: biotinylated, site not given here, PSMA peptide mask (P2)) [Peptide-209] |  |  |  |  | IC50 [7]: 10.2 µM
28 | MDWCPMHLWHQCFN (peptide, not shown: large carriers, Clonal phage supernatant) [Phage-39] |  |  | 2.56 | 0.299 | 
29 | YCEGHSSEYIQKCL (peptide, not shown: large carriers, Clonal phage of the Peptide-87 optimisation library, tested as crude supernatant) [Phage-490] | 0.1 | 2.25 |  |  | 
30 | YCWSHSPPFIKKCY (peptide, not shown: large carriers, Clonal phage of the Peptide-87 optimisation library, tested as crude supernatant) [Phage-492] | 0.06 | 2.06 |  |  | 
